Assay results published in article PMC7725843, “Structural and biochemical analyses of an aminoglycoside 2′-N-acetyltransferase from Mycolicibacterium smegmatis” (Scientific Reports, 2020).

Target: the molecule itself
Assay: AUC; analytical ultracentrifugation of apo-AAC(2′)-Id; 20 mM Tris-HCl (pH 8.0), 150 mM NaCl, 293 K, 40,000 rpm, monitored at 280 nm, SEDFIT

B1: Aminoglycoside 2′-N-acetyltransferase from Mycolicibacterium smegmatis [AAC(2′)-Id] (enzyme)
chain: MLTQHVSEARTRGAIHTARLIHTSDLDQETRDGARRMVIEAFRDPSGDSDFTDDFTDDDWDHALGGMHALISHHGALIAHGAVVQRRLMYRGPDGRGHALRCGYVEAVAVREDRRGDGLGTAVLDALEQVIRGAYQIGALSASDIARPMYIARGWLSWEGPTSVLTPTEGIVRTPEDDRSLFVLPVDLPDGLELDTAREITCDWRSGDPW
notes: also called apo-AAC(2′)-Id; AAC(2′) from M. smegmatis; source: E. coli BL21(DE3), purified (Ni-NTA, Q-Sepharose, thrombin cleavage, Superdex 200); not shown: His-tag, N-terminal, cleaved
  stoichiometry N: 2
